Measurements published in patent publication US20230159613A1 (published 2023).

T1: KRAS G12V peptide on HLA-A*11:01 (human)
T1 peptide: VVGAVGVGK

T2: KRAS G12V peptide on HLA-A*11:01 (human)
T2 peptide: VVVGAVGVGK

T3: KRAS (short peptide without mutation) peptide on HLA-A*11:01 (human)
T3 peptide: VVGAGGVGK

T4: KRAS (short peptide without mutation) peptide on HLA-A*11:01 (human)
T4 peptide: VVVGAGGVGK

T5: KRAS G12D peptide on HLA-A*11:01 (human)
T5 peptide: VVGADGVGK

T6: KRAS G12D peptide on HLA-A*11:01 (human)
T6 peptide: VVVGADGVGK

T7: other antigen short peptide (source not named) peptide on HLA-A*11:01 (human)
T7 peptide: SSCSSCPLSK


What was measured:
[1] = biological target: T1, KRAS G12V peptide on HLA-A*11:01; assay: Kd or kinetics
[2] = biological target: T2, KRAS G12V peptide on HLA-A*11:01; assay: cytokine release
[3] = biological target: T3, KRAS (short peptide without mutation) …; assay: cytokine release
[4] = biological target: T4, KRAS (short peptide without mutation) …; assay: cytokine release
[5] = biological target: T5, KRAS G12D peptide on HLA-A*11:01; assay: cytokine release
[6] = biological target: T6, KRAS G12D peptide on HLA-A*11:01; assay: cytokine release
[7] = biological target: T7, other antigen short peptide (source not …); assay: cytokine release

| Binder | binding result [1] | binding result [2] | binding result [3] | binding result [4] | binding result [5] | binding result [6] | binding result [7] |
| --- | --- | --- | --- | --- | --- | --- | --- |
| KRAS G12V antigen short peptide-specific TCR of SEQ ID NOs 1 and 5 (TCR, V domains shown) Valpha: QKEVEQNSGPLSVPEGAIASLNCTYSDRVSQSFFWYRQYSGKSPELIMSIYSNGDKEDGRFTAQLNKASQYVSLLIRDSQPSDSATYLCASLKGNNDMRFGAGTRLTVKP Vbeta: GAGVSQSPRYKVAKRGQDVALRCDPISGHVSLFWYQQALGQGPEFLTYFQNEAQLDKSGLPSDRFFAERPEGSVSTLKIQRTQQEDSAVYLCASSSSRWEQQFFGPGTRLTVL | recognises | recognises | no recognition | no recognition | no recognition | no recognition | no recognition |
| KRAS G12V antigen short peptide-specific soluble single chain TCR of SEQ ID NO 30 (TCR, V domains shown) Valpha: QKEVEQNSGPLSVPEGENVSINCTYSDRVSQSFFWYRQYSGKSPELIMSIYSNGDKEDGRFTAQLNKASQYVSLEIRDVQPSDSATYLCASLKGNNDMRFGAGTRLTVKP Vbeta: GAGVSQSPRYLSVKRGQDVTLRCDPISGHVSLFWYQQAPGQGPEFLTYFQNEAQLDKSGLPSDRFNAERPEGSVSTLKIQRVQPEDSAVYLCASSSSRWEQQFFGPGTRLTVD | recognises | – | – | – | – | – | – |
